Laboratory results reported in the nanobody polyreactivity screen of Harvey et al. (2022).

Experiment: yeast display, Sf9 membrane polyspecificity reagent, FACS + sequencing; frameworks hold sequencing errors
Procedure, shortened: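 Galactose induction of a Saccharomyces cerevisiae BJ5465 synthetic nanobody display library ran 36–48 hours. The cells were then stained for 1 hour at 4 °C with 10% biotinylated, detergent-solubilized Sf9 membrane reagent, pulled down on streptavidin microbeads and FACS-sorted into low and high (top ~1%) gates on expression and reagent-binding fluorescence. Labels for polyreactivity follow the gate of origin.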

Row | Sequence | polyreactivity (PSR sort gate)
1 | QGQLVESGGGLVQAGGRLRLSCAAAGGIFYSNRMGWYRQATGKEREMVAAITGGDITDYADSVKGRFTISRDNAKNTDYLQMNSLKPEDTAVYYCAGESNPPDYGPRFGSWGQGTQVSVSS | low polyreactivity
2 | QVQLVESGGGLVQAGGSLRLSCAASGSIFNANTMGWYRQAPGKERELVAVITSGGSTYYADSVKGRFTISRDNAKNTVYLQMNSLKPEDTAVYYCAKDPGPYDYDYWGQGTQVTVSS | low polyreactivity
3 | QVQLQESGGGLVQAGGSLRLSCAASCTISQEDCMGWYRQAPGKVREFVAAIGLGSNTNYADSLKGRFTISRDNAKNTVYLQMNRLKPEDTAVYYCAVSVWQYSDHVYRGQGTQVTVSS | low polyreactivity
4 | QVQLVESGGGLVQAGGSLRIRCAASGSTFKTYTMGWYRQAPGKERELVAGITSGGSTSYADSVKGRFTISRDNAKNTVYLQMNSLKPEVTAVYYCAAAEGGGLVTYDYCGQGTQVTVSS | low polyreactivity
5 | QVQLLESGGGLVQAGGSLRLSCAASGLIFAGNAMGWYRQAPGKERELVAAISSSGGRTYYADSVKGRFTFSRDNAKNTVYLQMYSLKPEDTAVYYCAAVRTGYYRQYDYWGQGTQVTVSS | high polyreactivity
6 | QVHLVESGGGLVQAGGSLRLSCADSGFIFWSYVMGWNRQAPGKESELVAAIDYSGASTYYADSVKGRFTISRDNAKNTVSLQMNSLKPEDTAVYYCNAVAYYPYGYDYWGQGTQVTVSS | low polyreactivity
7 | QVQLVESGGGLVQAGGSLRFSCAASGSTFRYNAMGWYRQAPGKERELVAVISWGGGRTYYADSVKGRFTISRDNAKNTVYLKMNSLKPEDTAVYYCNVYFGRIVARDYGYWGQGTQVTVSS | high polyreactivity
8 | QVQLVESGGGLVQAGGSLRLSCAASGFTFGPNTMGWYRQAPGKERELVAAISARGGRTYYADSVKGRFTISRDNAKNTVYLQMNSLKPEDTAVYYCAAPGYVRTGVTYGGYYWGQGTQVTVSS | high polyreactivity
9 | QVQLVESGGGLVQAGGSLRLSCAASGRTFLDNAMGWYRQAPGNEWELVATICSSGGTRYYADSVKGSFTISRDNAKNTVYLPMHSQKPEDTAVYYCNALWWGRYYRPYVTPVLGRMEYWGQGTQVTVSS | low polyreactivity
10 | QVQLVESGGGLVQAGGSLRLSCAASGRTFKRNAKGWYRQAPGKERELVAAISGTGASTYYADSVKGRFTISRDNAKNTVYLQMNSLKPEDTAVYYCAKYRYISNPVYLGDYWGQGTQVTVSS | high polyreactivity
11 | QVQLVESGGGLVQAGGSLRLSCAASGFIFRAYAMGWYRQEPGKERELVAAISRGGGTYYADSVKGRFTISRDNAKNTVYLQMNSLKPEDTAVYYCAVDLLRRGFPTVVTTYDYWGQGTQVTVSS | high polyreactivity
12 | QVQLVVSGGGLVQAGGSLRLSCAASGSIFSRYTMGWYRVAPGKERELVAAITASGTRTYYADSVKGRFTISRDNAKNTVYLQMNSLKPEDTAVYYCNVVRGSRDVTYGYNYWGQGTQVTVSS | high polyreactivity
13 | QVQLEESGGGLVQAGGSLRISCAAYGSTFYYNVMGWYRQAPGKERELVAAITWRGDITYYADSVKGRFTISRDNAKYNVYLQMKCLKPEDTAVFYCAKRYQPSYRSNFWGEGTQVTVSS | low polyreactivity
14 | QVQLVESGGGLVQAGGSLRLSCAASGFTFPKYAMGWYRQAPGKERELVAAISYRGGSTYYADSVKGRFTISRDNAKNTVYLQMNSLKPEDTAVYYCAAEIPHAPYEYWGQGTQVTVSS | high polyreactivity
15 | QVQLVDSGGGLVQAGGSLRLSCAASGITLSWYAKGWYRQAPGQERELVAGISGRGGRTYYADSVKGRFTISRDNAKNTVYLQMNSLKPEDTAVYYCAAVSPGYRSYDYWGQGTQVTVSS | high polyreactivity
16 | QVHLVESGGGLVQAGGRLRLSCAASGFTLRYYAMGWYRQAPGKESELVATINRSGASTYYADTVKGRFTISRDNAKNTVYLQMNSQKPEDTAVYYCKTATSRAYRYDYWGQGTQVTVSS | low polyreactivity
17 | QVQLVETGGGLVQAGGSLRLSCAASGFIFVLNAMGWDRQAPGKEMEFVAAITRSGGSTYYADSVKGRFTISRDNAKNNVYLPMNSLKPEVTAVYYCAVLYHSRDRYTYRDEDYWGQGTQVTVSS | low polyreactivity
18 | QVQLVESGGGLVQAGGSLRLSCAASGRIFRYNIMGWYRPAPGKERELVAAIRQIGGSTYYADSVKGRFTISRDNAKNTVYLQMNSLKPEDTAVYYCAADSTVEATPFFVEYDYWGQGTQVTVSS | low polyreactivity
19 | QVQLVESGGGLVQAGGSLRLSSAASGFTFIRSTMGWYRQAPGKEREFVAAITWSGDSTYYADSVKGRFTISRDNAKNTVYLQMNSLKPEDTAVYYCAAESDPYSPEYDYWGQGTQVTVSS | low polyreactivity
20 | QVQLVESGGGLVQAGGSLRLSCAASGRIFVRYAMGWYRQAPGKERELVASIRSGGSTNYADSVKGRFTISRDNAKNTVYLQMNSLKPEDTAVYYCAAVLRPVRFYSGYYYWGQGTQVTVSS | high polyreactivity
21 | QVQLVDSGGGLVQAGGSLRLSCAASGSNITRKAMGWYRQAPGKERELVAAIRKIGGRTYYADSVKGRFTISRDNAKNTVYLQMNSLKPEDTAVYYCAAGGSYYRDDYWGQGTQVTVSS | low polyreactivity
22 | QVQLVESGGGLVQAGGSLRLSCAASGSTFFFNAMGWYRQAPGKERELVAAITVRSGSTYYADSVKGRFTISRDNAKSTVYLQMNSLKPEDTAVYFCAADYSPGRSVVDYWGQGTQVTVSS | low polyreactivity

Row | Sequence | polyreactivity (PSR sort gate)
23 | QVQLVESGGGLVQAGGSLRLSCAASGSTFDTYAMGWYRPAPRKERELLAAISRSGTSTYYADSVKGRFTISRDNAKNTVYLQMNSLKPEESAVYYCAAYGPRVNGEIGREYYYWGQGTQVTVSS | low polyreactivity
24 | QVQVVESGGGLVQAGGSLRLSCAASGFIFWEYAMGWYRQAAVKECELVSAISTSGGSTYYADSVKGRFTISRDNAMNSVYLQKNCLKQEDTAVYYCATDVYSGPLLKYDYWGQGTKVTVSS | low polyreactivity
25 | QVQLVESGGGLVQAGGSLLLSCAASGSIFYSNAMGWYRKAPGKERELVAAIRRSGGSTYYADSVKGRFTISRDNAKYTVYLQMNSLKPEDTAVYYCATTRRVPGEYWGQGTQVTVSS | high polyreactivity
26 | QVQLVESVGGLVQAGGSLRLSCAASGSIFSWYAMGWYRQAPGNARELVAAIRRGGSTYYADSVKGRFTISRDNATNTVYLQMNSLKPEDTAVYYCADRVYTAASRGRGDYWGQGTQVTVSS | low polyreactivity
27 | QVQLVESGGGLVQAGGSLRLSCAASGRIFKTNAMGWYRQAPGKERELVAAITWSGTSTYYADSVKWRYTISRDNEKITVYLQMNSLKPEDTAVYYCDAKQYARKYGFWGQGTQVTVSS | high polyreactivity
28 | QVQLVESGGGLVQAGGSLRLSCAASGLISESYAMGWYRPAPGKERELVAAISSGGSTYYADSVKGRFTISRDNAKNTVYLQMNSLKPEDTAVYYCNASGYKYTYGHAYYYAVDYWGQGTQVTVSS | low polyreactivity
29 | QVQLVESGGGLVQAGGSLRLSCAASGRIFYWYAMGWYRQAPGKERELVAAISRSGSRTYYPDSVKGRFTISRDNAKNTVYLQMNSLKPEDTAVYYCAAVSGTGTAMDYWGQGTQVTVSS | high polyreactivity
30 | QVQLVESGGGLVQAGGSLRLSCAASGSIFYPYAMGWYRQAPGKERELVAAISSGGTTYYADSVKGRFTISRDNAKNTVYLQMNSLKPEDTAVYYCGAGFYLRAVWMDYWGQGTQVTVSS | high polyreactivity
31 | QVQLVESGGGLVQAGGSLRLSCAASGRIFDKYTMGWYRQAPGKERELVAAISKSGSGTFYADSVKGRFTISRDNAKNTVYLQMNSLKPEDTAVYYCARVYTVGTGRSWRLDYCGQGTQVTVSS | high polyreactivity
32 | QVQLVESGGGLVQAGGSLRLSCAASGNTFDPNAMGWYRQAPGKEREFVAAISTIGSSTYYADSVKGRFTISRDNAKNTVYLQMNSLKPEDTAVYYSNADYFQDRLDYWGQGTQVTVSS | low polyreactivity
33 | QVQLVESGGGLVQAGGSLRLSCAASGSTFIGYAMGWYRQAPGKERELVAAISRSDGSTYYADSVKGRFTISRDHAKNTVYLQMNSLKPEDTAVYYCNADYYRWYDYWGQGTQVTLSS | low polyreactivity
34 | QVQLVESGGGLVQAGGSLRLSCAASGFTFRYYAMGWFRQAPGKESELVAAITWSGGGTYYADSVKGRFTISRYNAKNTVYLQMNSLKPEDTAVYYCNVYKSHRHQAEYNYWGQGTKVTVSS | high polyreactivity
35 | QVQLVESGGGLVQAGGSLRLSCAASGRIFYAYTMGWYRQAPGKERELVAAISGSGSTYYADSVKGRFTISRDNAKNTVYLQMNSLKPEDTAVYYCAADVTGGRKYDYWGQGTQVTLSS | low polyreactivity
36 | QVQLVESGGGLVQAGGSLRLSCAASGSIFTYYAIGWYRQAPWKERELVAAISWSDGNTYYADSVKGRFTISRDNAKNTVYLQMNSLKPEDSAVYYCAAEYYVSRYWYPYDFYIMNYWGQGTQVTVSS | high polyreactivity
37 | QVQLVESGGGLVQAGGSLGLSCAASGRIFWTYAMGWYRQAPGKERELVASITWSGGSTYYADSVKGRFTISRDNANNTDYLQMNSLKPEDTSVYYCNTDVLAPYDSGYWGQGTQVTVSS | low polyreactivity
38 | QVQLVESGGGLVQAGGSLRLSCAASGSIFVTYAMGWYRQAPGKERELVARITSGGSTYYADSVKGRFTISRDNAKNTVYLQMNRQKPEDTAVYYCAARRWLRYDLDYWGQGTQVTVSS | low polyreactivity
39 | QVQLVESGGGLVQAGGSLRLSCAASGSIYYQYAMGWYRQAPGKERELVAAITYGGGSTYYADSVKGRFTISRDNAKNTVYLQMISLKPEDTAVYYCAKDLYHTVGRYDYWGQGTQVTVSS | low polyreactivity
40 | QVQLVESGGGLVQAGGSLRLSCAASGSIFRDNAMGWYRQAPGKERELVAAITDSGGRTYYADSVKGRFTISRDNAKNTVYLQMNSLKPEDTAVYYCAAGQSGYAGRRPAFGYWGQGTQVTVSS | low polyreactivity
41 | QVQLVESGGGLVQEGGSLRLSCAASGRIFKPYVMGWYRQAPGKERELVAAISWSGGASTYYADSVKGRFTISRENAKNTVYLQMNSLKPEDTAVYYCNAAKRNRYDYWGQGTQVTVSS | low polyreactivity
42 | QVQPVESGGGLVQAGGSLRLSCADSGSIIYYNAMGWYRQAPGKEREFVAAITSSGGSTYADSVKGRFTISRDNGKNTVYIQMNSMKPEDTAVYYCATVAHGLLSGSGYIYAYDYWGQGTQVTVSS | low polyreactivity
43 | QVQLVESGGGLVQAGGSLRLSCAASGRTFSAYAMGWYRQAPGKERELVARITSVDSTNYADSVKGRFTISRDNAKNTVYLQMNSLKPDDTAVYYCNATFVFPFVDYDDYWGQGTQVTVSS | low polyreactivity
